Measurements from PMC3021515.

Tests used:
DmE1523N (Drosophila) [1] = molecular target: DmE1523N (Drosophila) (UniProt P35500)
mNav1.6 (mouse) [2] = molecular target: mNav1.6 (mouse) (UniProt Q9WTU3)
DmD1525E (Drosophila) [3] = molecular target: DmD1525E (Drosophila) (UniProt P35500)
rNav1.3 (rat) [4] = molecular target: rNav1.3 (rat) (UniProt P08104)
DmL899C (Drosophila) [5] = molecular target: DmL899C (Drosophila) (UniProt P35500)
DmNav1 (Drosophila) [6] = molecular target: DmNav1 (Drosophila) (UniProt P35500)
DmI1529K (Drosophila) [7] = molecular target: DmI1529K (Drosophila) (UniProt P35500)
DmG904N (Drosophila) [8] = molecular target: DmG904N (Drosophila) (UniProt P35500)
DmD838C (Drosophila) [9] = molecular target: DmD838C (Drosophila) (UniProt P35500)
DmE896C (Drosophila) [10] = molecular target: DmE896C (Drosophila) (UniProt P35500)
rNav1.2 (rat) [11] = molecular target: rNav1.2 (rat) (UniProt P04775)
DmI1529K (Drosophila) [12] = molecular target: DmI1529K (Drosophila) (UniProt P35500); remark: listed apart in the source
DmE1523N (Drosophila) [13] = molecular target: DmE1523N (Drosophila) (UniProt P35500); remark: listed apart in the source
mNav1.6 (mouse) [14] = molecular target: mNav1.6 (mouse) (UniProt Q9WTU3); remark: listed apart in the source
[15] = molecular target: DmI1529K/R1530Y (Drosophila) (UniProt P35500)
DmM5 (Drosophila) = DmM5 (Drosophila) (UniProt P35500)
DmD1525E (Drosophila) [16] = molecular target: DmD1525E (Drosophila) (UniProt P35500); remark: listed apart in the source
DmR1530Y (Drosophila) = DmR1530Y (Drosophila) (UniProt P35500)
rNav1.3 (rat) [17] = molecular target: rNav1.3 (rat) (UniProt P08104); remark: listed apart in the source
DmT1532D (Drosophila) = DmT1532D (Drosophila) (UniProt P35500)
DmL899C (Drosophila) [18] = molecular target: DmL899C (Drosophila) (UniProt P35500); remark: listed apart in the source
DmNav1 (Drosophila) [19] = molecular target: DmNav1 (Drosophila) (UniProt P35500); remark: listed apart in the source
DmI1529K (Drosophila) [20] = molecular target: DmI1529K (Drosophila) (UniProt P35500); remark: listed apart in the source
DmI1534L (Drosophila) = DmI1534L (Drosophila) (UniProt P35500)
DmG904N (Drosophila) [21] = molecular target: DmG904N (Drosophila) (UniProt P35500); remark: listed apart in the source
[22] = molecular target: L(1.2)DmNav1 (Drosophila) (UniProt P35500)
DmD838C (Drosophila) [23] = molecular target: DmD838C (Drosophila) (UniProt P35500); remark: listed apart in the source
L(Dm)Nav1.2 (rat) = L(Dm)Nav1.2 (rat) (UniProt P04775)
DmE896C (Drosophila) [24] = molecular target: DmE896C (Drosophila) (UniProt P35500); remark: listed apart in the source
DmK1526L (Drosophila) = DmK1526L (Drosophila) (UniProt P35500)
rNav1.2 (rat) [25] = molecular target: rNav1.2 (rat) (UniProt P04775); remark: listed apart in the source
rNav1.3 (rat) [26] = molecular target: rNav1.3 (rat) (UniProt P08104); remark: listed apart in the source

In the case of BmK IT2 (natural protein), the EC50 of BmK IT2 from the currents it induces at −40 mV (activation threshold), two-electrode voltage clamp, Xenopus oocytes (DmE1523N (Drosophila) [1]) is reported as 2.4 µM, the EC50 of BmK IT2 from the currents it induces at −40 mV (activation threshold), two-electrode voltage clamp, Xenopus oocytes (mNav1.6 (mouse) [2]) is reported as over 50 µM and the EC50 of BmK IT2 from the currents it induces at −40 mV (activation threshold), two-electrode voltage clamp, Xenopus oocytes (DmD1525E (Drosophila) [3]) is reported as 3.3 µM. For the same substance, the EC50 of BmK IT2 from the currents it induces at −40 mV (activation threshold), two-electrode voltage clamp, Xenopus oocytes (rNav1.3 (rat) [4]) was over 20 µM, the EC50 of BmK IT2 from the currents it induces at −40 mV (activation threshold), two-electrode voltage clamp, Xenopus oocytes (DmL899C (Drosophila) [5]) was over 35 µM and the EC50 of BmK IT2 from the currents it induces at −40 mV (activation threshold), two-electrode voltage clamp, Xenopus oocytes (DmNav1 (Drosophila) [6]) was 2.9 µM. The EC50 of BmK IT2 from the currents it induces at −40 mV (activation threshold), two-electrode voltage clamp, Xenopus oocytes (DmI1529K (Drosophila) [7]) was 15.6 µM, the EC50 of BmK IT2 from the currents it induces at −40 mV (activation threshold), two-electrode voltage clamp, Xenopus oocytes (DmG904N (Drosophila) [8]) was over 50 µM and the EC50 of BmK IT2 from the currents it induces at −40 mV (activation threshold), two-electrode voltage clamp, Xenopus oocytes (DmD838C (Drosophila) [9]) was 3.6 µM. It also gave an EC50 of BmK IT2 from the currents it induces at −40 mV (activation threshold), two-electrode voltage clamp, Xenopus oocytes (DmE896C (Drosophila) [10]) of over 35 µM, an EC50 of BmK IT2 from the currents it induces at −40 mV (activation threshold), two-electrode voltage clamp, Xenopus oocytes (rNav1.2 (rat) [11]) of over 50 µM and an EC50 of BmK IT2 from the currents it induces at −40 mV (activation threshold), two-electrode voltage clamp, Xenopus oocytes (unit as printed in the text; the table gives µM) (DmI1529K (Drosophila) [12]) of 0.0156 µM. The shift of the half-maximal activation voltage (ΔV1/2) by 2 µM BmK IT2 with prepulse, two-electrode voltage clamp, Xenopus oocytes (DmE1523N (Drosophila) [13]) was -12.1 mV, the shift of the half-maximal activation voltage (ΔV1/2) by 2 µM BmK IT2 with prepulse, two-electrode voltage clamp, Xenopus oocytes (mNav1.6 (mouse) [14]) was 0.32 mV and the shift of the half-maximal activation voltage (ΔV1/2) by 2 µM BmK IT2 with prepulse, two-electrode voltage clamp, Xenopus oocytes [15] was -5.06 mV. It also gave a shift of the half-maximal activation voltage (ΔV1/2) by 2 µM BmK IT2 with prepulse, two-electrode voltage clamp, Xenopus oocytes (DmM5 (Drosophila)) of -6.56 mV, a shift of the half-maximal activation voltage (ΔV1/2) by 2 µM BmK IT2 with prepulse, two-electrode voltage clamp, Xenopus oocytes (DmD1525E (Drosophila) [16]) of -9.73 mV and a shift of the half-maximal activation voltage (ΔV1/2) by 2 µM BmK IT2 with prepulse, two-electrode voltage clamp, Xenopus oocytes (DmR1530Y (Drosophila)) of -5.11 mV. It also gave a shift of the half-maximal activation voltage (ΔV1/2) by 2 µM BmK IT2 with prepulse, two-electrode voltage clamp, Xenopus oocytes (rNav1.3 (rat) [17]) of 0.9 mV, a shift of the half-maximal activation voltage (ΔV1/2) by 2 µM BmK IT2 with prepulse, two-electrode voltage clamp, Xenopus oocytes (DmT1532D (Drosophila)) of -9.44 mV and a shift of the half-maximal activation voltage (ΔV1/2) by 2 µM BmK IT2 with prepulse, two-electrode voltage clamp, Xenopus oocytes (DmL899C (Drosophila) [18]) of -1.39 mV. It also gave a shift of the half-maximal activation voltage (ΔV1/2) by 2 µM BmK IT2 with prepulse, two-electrode voltage clamp, Xenopus oocytes (DmNav1 (Drosophila) [19]) of -11.9 mV, a shift of the half-maximal activation voltage (ΔV1/2) by 2 µM BmK IT2 with prepulse, two-electrode voltage clamp, Xenopus oocytes (DmI1529K (Drosophila) [20]) of 0.12 mV and a shift of the half-maximal activation voltage (ΔV1/2) by 2 µM BmK IT2 with prepulse, two-electrode voltage clamp, Xenopus oocytes (DmI1534L (Drosophila)) of -7.99 mV. For the same substance, the shift of the half-maximal activation voltage (ΔV1/2) by 2 µM BmK IT2 with prepulse, two-electrode voltage clamp, Xenopus oocytes (DmG904N (Drosophila) [21]) was 0.66 mV, the shift of the half-maximal activation voltage (ΔV1/2) by 2 µM BmK IT2 with prepulse, two-electrode voltage clamp, Xenopus oocytes [22] was -12.5 mV and the shift of the half-maximal activation voltage (ΔV1/2) by 2 µM BmK IT2 with prepulse, two-electrode voltage clamp, Xenopus oocytes (DmD838C (Drosophila) [23]) was -10.4 mV. It also gave a shift of the half-maximal activation voltage (ΔV1/2) by 2 µM BmK IT2 with prepulse, two-electrode voltage clamp, Xenopus oocytes (L(Dm)Nav1.2 (rat)) of -5.05 mV, a shift of the half-maximal activation voltage (ΔV1/2) by 2 µM BmK IT2 with prepulse, two-electrode voltage clamp, Xenopus oocytes (DmE896C (Drosophila) [24]) of -1.86 mV and a shift of the half-maximal activation voltage (ΔV1/2) by 2 µM BmK IT2 with prepulse, two-electrode voltage clamp, Xenopus oocytes (DmK1526L (Drosophila)) of -12.3 mV. It also gave a shift of the half-maximal activation voltage (ΔV1/2) by 2 µM BmK IT2 with prepulse, two-electrode voltage clamp, Xenopus oocytes (rNav1.2 (rat) [25]) of 1.14 mV and a shift of the half-maximal activation voltage (ΔV1/2) by 50 µM BmK IT2, two-electrode voltage clamp, Xenopus oocytes (data not shown) (rNav1.3 (rat) [26]) of -4.84 mV.
